Measured values as given in article PMC10403728, “Interactions between Fkh1 monomers stabilize its binding to DNA replication origins” (The Journal of Biological Chemistry, 2023).

Biological target: the molecule itself
Assay: SEC + other: glycerol gradient sedimentation; purified FLAG-Fkh1; Superdex 200 5/150 GL in 150N buffer (25 mM Hepes-NaOH pH 7.6, 150 mM NaCl, 10% glycerol, 1 mM β-mercaptoethanol); main-peak and shoulder fractions on 10 to 15% glycerol gradients, 180,000g, 18 h, 4 °C; approximate molecular weight from Stokes radius and S value; monomer and dimer

B1: full-length Fkh1 (natural protein, Saccharomyces cerevisiae, UniProt P40466 1-484, looked up)
chain: MSVTSREQKFSGKYSSYTAQDRQGLVNAVTCVLSSSSDPVAVSSDYSNSLSIAREVNAYAKIAGCDWTYYVQKLEVTIGRNTDSLNLNAVPGTVVKKNIDIDLGPAKIVSRKHAAIRFNLESGSWELQIFGRNGAKVNFRRIPTGPDSPPTVLQSGCIIDIGGVQMIFILPEQETIISDYCLNHLMPKLLSTYGTNGNNNPLLRNIIEGSTYLREQRLQEEARLQQLDHLHTPLSSSSDVNPIGDPHGDTIMMEEDEEDENYTRGGIRPNTYTSSSNNAVTNGNVPHIENPSDLSLDENRYIKPPQSYASMITQAILSTPEGSISLADIYKFISDNYAFYRFSQMAWQNSVRHNLSLNKAFEKVPKRAGQQGKGMNWKISDEVRRDFLNKWNAGKLSKIRRGASVTRQLQLHMSKFGEIPAPESSSIDPRGIKAQKVKKSLQATSSILGESAPQLQRTQLTGQISTTTSMDVTTNANVNNSSLS
notes: Fkh1, Forkhead family transcription factor of Saccharomyces cerevisiae, full length (the truncation Δ410–484 tells a length of 484 residues); also called wild-type Fkh1; FLAG-tagged full-length Fkh1; source: S. cerevisiae (W303 derivative), GAL1-10 promoter, galactose-induced; also in whole-cell extract of a strain co-expressing two differently tagged copies; not shown: FLAG, N-terminal, kept
stoichiometry N: 2
